Experimental data published in patent publication US20030166036A1, “Protease and an aminopeptidase associated with development of benign prostatic hyperplasia (BPH)” (priority 2001, published 2003).

Legend:
PSA = biological target: T1, PSA (Homo sapiens, UniProt P07288); experiment: Incubation of PSA with lysyl endopeptidase C, cleavage followed by HIC-HPLC and N-terminal sequencing; format: biochemical
T1 construct: Unlike the purified mature PSA, pPSA was isolated from a recombinant expression system; from tissue; host or cells: seminal plasma
Protocol: (§1) High-performance hydrophobic interaction chromatography (HIC-HPLC) was performed using a polypropylaspartamide column (PolyLC, distributed by Western Analytical, Temecula, Calif.). The column was 4.6×250 mm in length with a 1000 Å pore size. Samples were applied in 1.5 M ammonium sulfate and eluted with a gradient. Buffers were prepared as follows. Buffer A consisted of 1.2 M sodium sulfate, 25 mM sodium phosphate, and a pH of 6.3, and Buffer B consisted of 50 mM sodium phosphate and 5% v/v 2-propanol. The gradient was 0-30% B for 1 minute, 30-60% B 10 minutes, followed by re-equilibration in Buffer A. High-sensitivity peak detection was obtained with a Varian Model 9070 (Varian Medical Systems, Palo Alto, Calif.) scanning fluorescence detector using an excitation of 232 nm and an emission of 334 nm to detect the tryptophan residues in protein.
N-terminal sequence analysis of the samples was performed on a PE-Applied Biosystems Model 492 amino acid sequencer (PE-Applied Biosystems, Foster City, Calif.). Purified PSA and peaks collected by HIC-HPLC were applied directly to Prosorb cartridges (PE-Applied Biosystems, Foster City, Calif.), washed three times with 0.1 ml 0.01% trifluoroacetic acid, and applied to the sequencer.
Samples of PSA and proPSA were incubated with 0.1% lysyl endopeptidase C (Wako Cemicals USA, Richmond, Va.) in PBS at pH 7 for the times indicated in the figures. The LysC reaction was quenched by the addition of a 10-fold molar excess of aprotinin prior to analysis by HIC-HPLC. The internal cleavage sites of the different HIC-HPLC peaks were determined by N-terminal sequencing.
We also examined the digestion of PSA with LysC in vitro to determine the relative susceptibility of the Lys145 and Lys182 sites.

proPSA = biological target: T2, proPSA (Homo sapiens, UniProt P07288); experiment: Incubation of proPSA with lysyl endopeptidase C, cleavage followed by HIC-HPLC; format: biochemical; settings: recombinant pPSA (zymogen), 0.1% LysC in PBS pH 7
T2 construct: due to the altered folding in the zymogen form of PSA; made in house
Protocol: as §1
Samples of PSA and proPSA were incubated with 0.1% lysyl endopeptidase C (Wako Cemicals USA, Richmond, Va.) in PBS at pH 7 for the times indicated in the figures. […] The internal cleavage sites of the different HIC-HPLC peaks were determined by N-terminal sequencing.
ProPSA (pPSA) was also incubated with LysC to determine if there was any difference between the cleavage of the Lys145 and Lys182 sites due to the altered folding in the zymogen form of PSA. […] The cleavage of the Lys182 and Lys145 sites in pPSA was also monitored by HIC-HPLC. […]

T1 sequence (P07288 25-261): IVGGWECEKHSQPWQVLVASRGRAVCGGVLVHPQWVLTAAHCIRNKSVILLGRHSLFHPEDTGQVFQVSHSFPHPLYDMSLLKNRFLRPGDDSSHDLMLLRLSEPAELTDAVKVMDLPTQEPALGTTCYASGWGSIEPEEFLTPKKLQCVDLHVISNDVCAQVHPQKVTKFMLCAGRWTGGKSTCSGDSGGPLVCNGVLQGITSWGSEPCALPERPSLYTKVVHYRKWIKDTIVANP
T2 sequence (P07288 18-261 limits assumed): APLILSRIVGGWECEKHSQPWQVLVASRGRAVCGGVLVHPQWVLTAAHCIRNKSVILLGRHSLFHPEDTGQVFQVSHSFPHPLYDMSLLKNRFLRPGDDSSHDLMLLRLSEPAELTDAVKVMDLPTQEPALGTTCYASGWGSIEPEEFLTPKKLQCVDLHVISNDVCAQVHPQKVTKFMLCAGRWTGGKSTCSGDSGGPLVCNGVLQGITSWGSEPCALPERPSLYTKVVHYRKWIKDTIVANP

Lys182 cleaved more rapidly than Lys145 (PSA; PSA digested with LysC in vitro): approximately 30 times
PSA cleaved at Lys182 (PSA; after 30 minutes of incubation with LysC): 100%
rate of cleavage at Lys145 (PSA; mature PSA, 0.1% LysC in PBS pH 7, based on time points greater than 30 minutes): 0.3 % per minute
rate of cleavage at Lys145 (proPSA): about 0.6 % per minute
B1: LysC: lysyl endopeptidase C (Wako), commercial protease with wide specificity for lysine residues, used to cleave PSA in vitro (protein)
chain: GVSGSCNIDVVCPEGDGRRDIIRAVGAYSKSGTLACTGSLVNNTANDRKMYFLTAHHCGMGTASTAASIVVYWNYQNSTCRAPNTPASGANGDGSMSQTQSGSTVKATYATSDFTLLELNNAANPAFNLFWAGWDRRDQNYPGAIAIHHPNVAEKRISNSTSPTSFVAWGGGAGTTHLNVQWQPSGGVTEPGSSGSPIYSPEKRVLGQLHGGPSSCSATGTNRSDQYGRVFTSWTGGGAAASRLSDWLDPASTGAQFIDGLDSGGGTP
initial rate of cleavage at Lys182 (PSA; mature PSA purified from seminal plasma, 0.1% LysC in PBS pH 7): 12 % per minute
initial rate of cleavage of the Lys182 (proPSA): 8 % per minute
